Measured values published in patent US12642846B2.

Target: ZIKV sE-WT protein (Zika virus)
Assay: SPR (BIOCORE8000), sE amine-coupled on CM5 chip, antibody as mobile phase

2A10G6 antibody
Kd: 9.13 nM
